For experiment [1], the target named is human adiponectin receptor AdipoR2 (human) (UniProt Q86V24).
Experiment [2] deals with human adiponectin receptor AdipoR1 (human) (UniProt Q96A54).

In the case of adiponectin (ligand), the EC50 of adiponectin for repression of FET3-lacZ came to 2.4 pM in experiment [1] and 0.7 pM in experiment [2]. Moreover, the values for the log EC50 pM of adiponectin for repression of FET3-lacZ in experiment [1] and in experiment [2] were 0.38 log EC50 pM and -0.13 log EC50 pM, respectively.

For the origin of these results see US20100261178A1.
